According to patent US20240279353A1 (KIROMIC BIOPHARMA, published 2024):

Tests used:
Assay in all cases: EC50 binding assay (ELISA screening, format not stated)
[1] = molecular target: Mesothelin Isoform 1, as used in the EC50 binding assay (human) (UniProt Q13421)
[2] = molecular target: Mesothelin Isoform 2 (IsoMSLN), as used in the EC50 binding assay (human) (UniProt Q13421)
[3] = molecular target: T1, Mesothelin Isoform 2 (IsoMSLN), as used in the EC50 binding assay (human, UniProt Q13421 37-598)
T1 construct: also called MSLN Isoform 2; mesothelin isoform-2 polypeptide
T1 sequence (Q13421 37-606 limits assumed, form in doubt): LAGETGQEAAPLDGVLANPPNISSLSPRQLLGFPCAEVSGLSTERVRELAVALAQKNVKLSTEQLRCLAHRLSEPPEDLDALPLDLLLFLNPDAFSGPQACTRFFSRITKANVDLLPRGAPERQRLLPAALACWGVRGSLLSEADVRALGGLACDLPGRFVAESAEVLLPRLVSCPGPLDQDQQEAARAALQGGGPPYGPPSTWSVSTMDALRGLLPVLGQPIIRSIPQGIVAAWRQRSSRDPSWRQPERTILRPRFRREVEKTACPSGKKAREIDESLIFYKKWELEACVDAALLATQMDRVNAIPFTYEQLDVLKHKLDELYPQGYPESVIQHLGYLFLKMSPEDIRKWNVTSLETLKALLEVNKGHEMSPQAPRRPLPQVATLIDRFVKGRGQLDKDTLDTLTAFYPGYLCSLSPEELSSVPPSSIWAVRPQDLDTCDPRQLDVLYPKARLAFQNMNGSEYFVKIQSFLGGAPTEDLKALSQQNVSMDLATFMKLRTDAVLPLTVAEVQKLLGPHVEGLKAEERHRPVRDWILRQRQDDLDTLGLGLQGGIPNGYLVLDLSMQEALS

Sequence of Mesothelin Isoform 1, as used in the EC50 binding assay (human) (Q13421 other isoform, or with tags, fused parts or gaps limits assumed): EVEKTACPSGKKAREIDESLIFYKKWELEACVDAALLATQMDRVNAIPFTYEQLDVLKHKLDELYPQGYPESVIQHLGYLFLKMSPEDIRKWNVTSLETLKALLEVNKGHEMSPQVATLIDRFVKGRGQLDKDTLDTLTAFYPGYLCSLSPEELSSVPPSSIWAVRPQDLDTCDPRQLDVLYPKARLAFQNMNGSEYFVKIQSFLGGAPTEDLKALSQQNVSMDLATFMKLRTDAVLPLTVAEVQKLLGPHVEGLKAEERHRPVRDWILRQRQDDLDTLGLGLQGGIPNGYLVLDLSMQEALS
Sequence of Mesothelin Isoform 2 (IsoMSLN), as used in the EC50 binding assay (human) (Q13421 37-606 limits assumed, form in doubt): as the sequence (Q13421 37-606 limits assumed, form in doubt) above

anti-MSLN antibody clone K1 (commercially available)
EC50 [1]: 0.15 mg/L | EC50 [2]: 0.11 mg/L

B1: anti-IsoMSLN monoclonal antibody clone 1B6 (antibody, V domains shown)
VH: EVKLVESGGGLVKPGGSLKLSCEASGFTFSRYAMSWVRHTPEKRLAWVASITFGGDPYYPDGLKGRFTISRDNTRNILYLQMNSLRSEDTAMYYCVRHESWFAYWGQGTLVTVSA
VL: DVLMTQTPLSLPVSLGEQVSISCRSSQTIVHTDGNIYLEWYLQNPGQSPRLLIYKISNRFSGVPDRFSGSGSGTDFTLKISRVEAEDLGIYYCFQASHVPYTFGGGTKLEIK
notes: also called IB6
EC50 [3]: 0.073 mg/L
